Test: soluble on expression in E. coli; label from the status in PepcDB or PDB records

Soluble on expression in E. coli, not soluble:
MGSDKIHHHHHHMTDYFSYLGLQPSREELIQRFGLELDKLMTLDLNLTGRPSYLYSRERNGSGEASSTAFAQLLLDSLASKDVSILVTGWPVRSSIDVSIGEADGPIGAAAIARALHMTTGAVSLAMAPAPLAAQVAAAFRSAGATIIDFDAFERLSKGNERLFGVAIVGLDVDCDLSNYFAELLQNVKPKTVIAIEHYGFSAEGKPYHGTGNVVEPGTALTHPLFDQAMAEGLICGSCVDNPNEVGTSRLHDAGVKHPPMRNDFANLLVGSSANSAAFALCAALAGLSATPTAAFPGSLDEAGIAATLAHGAIDPFSGTADPSFGVDTIESPYHAWIADLMGRLAKGYCVAAATERHL, MGSDKIHHHHHHMTEGWDALDAELEQWAAAGLRLPLWWRDDDAVTPTDALTRLEAMATRLDLPVHLAVIPKAAEDALAQHVSQSSHLIPVVHGWAHVNHANPDKKTCEFPSTRPVDEALTDAEQGVERLKHLFGARLQPMFVPPWNRISPAMLPWLAGLGFAAISTYGPRKRTQAASGLVQINTHIDPIDWKGGRGLMPEAQILQKLVANLQARRSGQQDNAEPLGLLTHHLVHTDEVWEFCDTLLRRLLEGPAHPWRFNERIN, MGSDKIHHHHHHMTENQTAHVRALILDATPLITQSYTHYQNYAQSFYTTPTVFQEIKDAQARKNLEIWQSLGTLKLVHPSENSIAKVSTFAKLTGDYSVLSANDLHILALTYELEIKLNNGDWRLRKKPGDALDASKADVGTDGKQKLTEDNKKEEDSESVPKKKNKRRGGKKQKAKREAREAREAENANLELESKAEEHVEEAGSKEQICNDENIKESSDLNEVFEDADDDGDWITPENLTEAIIKDSGEDTTGSLGVEASEEDRHVALNRPENQVALATGDFAVQNVALQMNLNLMNFMSGLKIKRIRNYMLRCHACFKIFPLPKDGKPKHFCASCGGQGTLLRCAVSVDSRTGNVTPHLKSNFQWNNRGNRYSVASPLSKNSQKRYGKKGHVHSKPQENVILREDQKEYEKVIKQEEWTRRHNEKILNNWIGGGSADNYISPFAITGLKQHNVRIGKGRYVNSSKRRS, MGSDKIHHHHHHMTGVQFIDVTDSEAIFDDNQWDAVVLVTHGLDAIAQEELAMLASHGAQVDARVGRSTTLLFAPGLAGGRLIVAPVADGDSDIQDVRGYSDAARQGIKVAFDAGARRPLLIVTPSTQARYAQSMGVAALGCAQALWQSLERREVLGEMDNISQIGLLVDDKAGELLCAIEAGKHLARDLCGTEPERMSAPAFAQYCVDALEGLDLTMSVVEDRDVLERDYPLLSAVGRASFAVSRHQPRVVKLEYKAEGPIERSYFFAGKGVVYDTGGADLKVGGAMAGMSRDKGGAAAVAGLMKTLALLKPKGVRVVAELGLVRNSIGSEAFVTDEIITSHAGVRVRIGNTDAEGRLVLADLLSHLRLKAQDAVAPQLFSVATLTGHVVRAYGGYTAVVENAVARQQQVGDSLQTISEAWGEPIEVSRLRRDDYQKIVDPSGAADVLSSNNAPSSVTARGHQYPAAFLLKASGLEAHGLTSDKPLAYTHVDIAGSATEGDPLYGTPTAAPLVSLCQLIRG, MGSDKIHHHHHHMTIMILREIIDELSYQLKQRRIINVCVSPAYTSVMLDDQSIGISHTITDGEIEGAGEIIGKNAYDVVINNLDSNLQRSLSLAILNALGSMIDFTQGDPINLYSGGKLCVFGFSPQLSYSNFDSVIVYDFMSTENKKVGNTEIKPYSSLSREVCSTALIFASSIVNNTIDRIISQISANHLILTGISSVDAPITLKNHGFEVLGKLFPVEKYRVFRTICEGGSNKLLSKYIMRYFKKL, MGSDKIHHHHHHMTKFLIDSLQPKLVAQFARIIDRKQLAQSYLFVGPKGAGKLALAEWIALRLFCQNVQDGAPCGQCPECERILNHNHPDVMVVKTETQSIKVDDIRGLKQEMSKTGVEGNQRVFVVEDADKMTAGAANSLLKFFEEPVPGMTVILTATSKNQLLPTILSRAQVITFQSPDRSAVIAKLEEGGATSQMARVAGRLTGNVADAQALLASATFQDRVTKVFQLLERLADHDPESFVRVQTQLLPIAKDADSQRQVLALIGLAYADALNQHFQVTSMQQLDLPAIGVLAQRSSEQLTTALQAILTAQVRLSQNVTFQSATEQLMLKLLEG, MGSDKIHHHHHHMTKIKHIFSDLDGTLLDDQGKISKKTQEVIENSNLPFSLVSARAPQAMESLINQLNLKSSQVAFNGGLIFAKNEVIKANPMVHASAQELIKTIKKDYPEINLSLYSLSDWYVEKIDKDIEQEMQFTPQVPKLVDLETLITERPRLEIFKILLITPNESKLEEIKKHLEKLNFPDIIIQKTWETYLEITHLEAQKAKAVQFIAQREQLEQSELAAFGDNENDLSMLKAVGLPIVMANASDDLKKIGKVITKSNTEDGVAYGIQKYITDSLF, MGSDKIHHHHHHMTKKLTNQLIDVTSGRNFRELGGYETNSGKKIKMHKLLRTGNLADLSPFDKQFLTDYGVKYDVDFRSKEEVERQPDRVPDGVEYIYDPVFSEDLTNSSKSINDLNTQASDDADFGFNHMHYAYEDMIESESAQKAYRKFFDVLLKNDVEGESVIFHCTAGKDRTGFGALLILSALGVPFNTIKKDYLLTNITTKEFVESMVEHARQNGRNENVLQSIRDIQSVRAEYIDHAVKIINDDYGSIHNYLRDMMKLSSADIMKLRNIYLED, MGSDKIHHHHHHMTLEQLLMFNTVALAGSLKAASDKLHKTQPAISQSIKQLESQLDVVLFDRQGYRLALTQEGRKLLQYAQRVLNEAQEMRQVAKHLAIGNEASITLAFEASFNLARILPMLERTQLEFPHTQIILKQEYLTGALEALNQGKADIAISAGGIESMRSNHFELGFLFSGSLLDVASPRLLSRYPSLSHVKELVNEYQIVIQDTGTGTANIEFGVQAGQRRWYVNDFYTKKMLIQSGMGWGKLPYYMVEEALANGSLHPLELKERQNLIQLDYYVMRRPQSPLGPVAQALWENLVQLATKQS, MGSDKIHHHHHHMTLVASSCTDVLDQMPTTEDTSKEVYADAANYKKVLAKIYASYVLAGQGQGGDNGDLKSINKQDFSRGYFNLQEAATDEVANTWLSGNNLSDLTYISWDAKDSWVSDSYYWLFFNIALCNEFLRHCSDEEIARFSEAEQTEIRTFRSEARFMRSFSYWMVLDLYRQGPKVDENTPVIGYIPEAYDGIGMFDFIESELKELVAEGVSSALPATNEYGRASKPVAWALLARLYLNSAIYRGNVDTKYYTECITACKQVISNPAFYLEPEYAKLFNADNHKRTHEILFAMVCDATTSVTWGGGTYIICGSCGNSSTQDPAKYGLSNGWGMFRARGEMTAKFGDIATTKDSRAMFYTDGQAQFFTGAIDNQAEGYFFEKFSNLTDEGVAASNSAATGCSTDYPLLRLADIYLMAAEAQLRGGTGLSRAEALELVNQVRLRAYNQDESGKISDSDFTLDFILDERARELYLESVRRTDLIRFNKFVSADYIWQWKGGVLDGRAVNKKYNIYPIPDTDLTANPNLHNPLY, MGSDKIHHHHHHMTNENLCAGRNRYDGVSIDFFSDADLRAIDSATMDVFQNPGIQVSDAESRALFKEAGCDVNEKTMVVKIPEHVVRRAIMTAPSKITLYGREKQHTFTQQAGGKVHYTCFGTGVKMCKYEAPGVFKTVDSTEEDLANTARVCDWADNIDSYSLAVSARDWAGKGAQDVHETFTPLMNTSKHFFHIDPVGENVEYYWDILKAYYGGDEEQARSRPIFSELLCPTSPLKIGTNACQLILKSVNFGIPINVISMAMSGASCPVHLAGTLVTHNAEVLSGIVLAQLASPGAKVWYGSSTTAFDLKHGTAPVGSPELGLISAAVAKLGQYYDLPTYVAST, MGSDKIHHHHHHMTNLTSTHEVLAIGRLGVDIYPLQSGVGLADVQSFGKYLGGSAANVSVAAARHGHNSALLSRVGNDPFGEYLLAELERLGVDNQYVATDQTFKTPVTFCEIFPPDDFPLYFYREPKAPDLNIESADVSLDDVREADILWFTLTGFSEEPSRGTHREILTTRANRRHTIFDLDYRPMFWESPEEATKQAEWALQHSTVAVGNKEECEIAVGETEPERAGRALLERGVELAIVKQGPKGVMAMTKDETVEVPPFFVDVINGLGAGDAFGGALCHGLLSEWPLEKVLRFANTAGALVASRLECSTAMPTTDEVEASLNQKV, MGSDKIHHHHHHMTNPISLKDPLKLPCGAVIKNRLIKSAMSDSLADGEGNATNLQARLYERWAKSGLGLSVIGEVQVDPRFPEKPGNLVLADGMDLAALRELTSRAAINGAHIWPQLSHAGGLSHLPISQPKGPSALNISQFQCAGMSIDEIYQLPDMYAKSAMLAKDVGFTGVQIHAGHGFLLSQFLSPLFNHRQDQYGGSIEARCRIIVEIIAKVRSAVGDSFPIGIKINSTDQLEGGLTQEDALAAIRILDQTSLDLIEISGGSYFPGAKSSSDSSTKGPYFAEFAATAKRLSNVPIAVTGGFKTYAQALKVIESGAVDFVGLARALVITPELAKDWLIGTATAPSFPRFKAPPQGGITAWFTMLLTAIANDSEESFELELLPALHLYEELDDARCDKWMQKFEIK, MGSDKIHHHHHHMTNPTLAPQSDEYQQIHNGIVQLLDTARTQTVRSINTIMTATYWEMGRRIVEFEQGGEARAAYGEQLIDRLSQDLSQRYKRGFSASNLWQFKKFYLYFQKIEILQTVSGESLHLAQLAKSFPLPWSAYVRLLSVKNPNARTFYEKETLRNGWSVRQLDRQIATQFYERTLLSHDKSAMLQQPAPAEPNVLPEQAIRDPFILEFLNLKDEYSESDLEDALLSHLMDFMLELGDDFAFVGRQRRLRIDDSWFRVDLLFFHRRLRCLLLVDLKVGKFGYADAGQMNMYLNYAKEHWTMPGENPPVGLVLCAGKGAGEAHYALTGLPNTIMASEYKVQLPDEKLLTDELIRSQTMLETQLTRGGSLTTEKN, MGSDKIHHHHHHMTNRCLYCYEPLVDGEMDYHAKCCRKLFGTPQAPILPYTSSEVRALADEVVRSQTTVTGVQPKLSLDFDQMSNSPKRFTIVGLWGRFILKPQTERYSHLPELEDVSMHLAEIAKIETVPHGLMRFSDGELCYITRRIDRTGQGEKLPMEDMCQLSERLTEYKYKGSHEQVAKLISKYSSVPKLDLVKYWEQVLFSWLIGNADMHLKNYSLYAPEGNEYQLTPAYDLLSTALVIPEDTEELALTLCGKKRKLTRQHFLEAMTASGLDEKVCDNIFARFQHILPEWEACIRQSFLPTEMQRQYIEFILLKFSQI, MGSDKIHHHHHHMTNVIIEKISAKEVFKGAKIKVMITTMTNISIGYDIIEVNNPEEAIADVENVIAPELIGYPATDIDFIDSLICETSVNNPTVAMGISISVARAASNSLDIPLFKFLGGALTTELPIVASGILVDKDKNELIPIVMADSIEDIVNLYLKLTDVLSHDYSIVNIDGAYTCKDIFNEIPKIRNLIDEIKEDEDLDILLGLSSKKETVKDKDLSQIDYLEVEEPVEFDGFLCTDSIYEESDFVKVFPYEMGTITEMYYYINYIMDKGLYPVIFGNNSSFAHIAVSFKVPFLRPKLSSNVLNEVWNIERTIMNPNIRRF

Reference: the DeepSol protein solubility set
